B1: Protein SLM4 (Saccharomyces cerevisiae), P38247 (parent)
chain: MVMLHSKNVKGFLENTLKPYDLHSVDFKTSSLQSSMIITATNGGILSYATSNNDVPKNSINEINSVNNLKMMSLLIKDKWSEDENDTEEQHSNSCYPVEIDSFKTKIYTYEMEDLHTCVAQIPNSDLLLLFIAEGSFPYGLLVIKIERAMRELTDLFGYKLG
partner: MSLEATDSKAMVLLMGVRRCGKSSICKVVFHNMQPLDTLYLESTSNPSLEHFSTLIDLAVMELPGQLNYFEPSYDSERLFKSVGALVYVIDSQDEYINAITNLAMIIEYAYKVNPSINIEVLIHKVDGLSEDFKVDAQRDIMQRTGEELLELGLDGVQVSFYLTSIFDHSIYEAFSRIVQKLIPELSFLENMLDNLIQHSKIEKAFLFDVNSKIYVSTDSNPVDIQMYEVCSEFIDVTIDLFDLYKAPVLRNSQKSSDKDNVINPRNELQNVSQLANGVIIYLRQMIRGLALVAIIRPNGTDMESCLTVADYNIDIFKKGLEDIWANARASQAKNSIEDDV
B2: Protein SLM4 (Saccharomyces cerevisiae), P38247 (parent)
chain: B1 chain
partner: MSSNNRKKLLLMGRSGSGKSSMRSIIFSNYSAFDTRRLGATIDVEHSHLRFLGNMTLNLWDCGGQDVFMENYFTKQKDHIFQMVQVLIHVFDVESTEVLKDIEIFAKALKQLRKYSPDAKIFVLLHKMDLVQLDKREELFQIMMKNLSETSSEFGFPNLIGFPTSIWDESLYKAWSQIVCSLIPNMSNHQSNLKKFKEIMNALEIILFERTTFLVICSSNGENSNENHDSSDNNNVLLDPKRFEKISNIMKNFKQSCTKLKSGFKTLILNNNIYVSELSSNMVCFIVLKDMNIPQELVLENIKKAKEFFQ

Variants of: B1
Settings: with ragcd_yeast GTR2, P53290

effect of a mutation on the interaction	Variant
decreasing interaction strength	MVMLHSKNVKGFLENTLKPYDLHSVDFKTSSLQSSMIITATNGGILSYATSNNDVPKNSINEINSVAALAAMSLLIKDKWSEDENDTEEQHSNSCYPVEIDSFKTKIYTYEMEDLHTCVAQIPNSDLLLLFIAEGSFPYGLLVIKIERAMRELTDLFGYKLG [N67A;N68A;K70A;M71A]

Variants of: B2
Settings: with ragab_yeast GTR1, Q00582

effect of a mutation on the interaction	Variant
decreasing interaction strength	MVMLHSKNVKGFLENTLKPYDLHSVDFKTSSLQSSMIITATNGGILSYATSNNDVPKNSINEINSVAALAAMSLLIKDKWSEDENDTEEQHSNSCYPVEIDSFKTKIYTYEMEDLHTCVAQIPNSDLLLLFIAEGSFPYGLLVIKIERAMRELTDLFGYKLG [N67A;N68A;K70A;M71A]

— IntAct's records for PubMed 23123112
